The chains are these.
B1: human ACKR4-EYFP [human] / fluorescently labeled human CCL19^Dy649P1 [modified: Dy649P1 (as CoA conjugate) attached site-specifically to the S6-tag by the phosphopantetheinyl transferase Sfp; Dy649P1 (as CoA conjugate) … (parent)
chain 1: GTNDAEDCCLSVTQKPIPGYIVRNFHYLLIKDGCRVPAVVFTTLRGRQLCAPPDQPWVERIIQRLQRTSAKMKRRSS
chain 2: MALEQNQSTDYYYEENEMNGTYDYSQYELICIKEDVREFAKVFLPVFLTIVFVIGLAGNSMVVAIYAYYKKQRTKTDVYILNLAVADLLLLFTLPFWAVNAVHGWVLGKIMCKITSALYTLNFVSGMQFLACISIDRYVAVTKVPSQSGVGKPCWIICFCVWMAAILLSIPQLVFYTVNDNARCIPIFPRYLGTSMKALIQMLEICIGFVVPFLIMGVCYFITARTLMKMPNIKISRPLKVLLTVVIVFIVTQLPYNIVKFCRAIDIIYSLITSCNMSKRMDIAIQVTESIALFHSCLNPILYVFMGASFKNYVMKVAKKYGSWRRQRQSVEEFPFDSEGPTEPTSTFSI

The test covers variants of B1. Nature of the test: flow cytometry on cells. The conditions noted are these: with fluorescently labeled human CCL19^Dy649P1 [modified: Dy649P1 (as CoA conjugate) attached site-specifically to the S6-tag by the phosphopantetheinyl transferase; 25 nM CCL19Dy649P1 at 8°C; HeLa cells; read off a plot. Background: In flow cytometry, cells or beads pass a laser one at a time.
Turning to chain 2 T142A T226A, the percent of parent was 90 % of wt.

For chain 2 S236A, the percent of parent is 90 % of wt.

With chain 2 S330A, the percent of parent is 83 % of wt.

In the case of chain 2 Y138F, the percent of parent is 72 % of wt.

As for chain 2 Y79F, the percent of parent was 110 % of wt.

For chain 2 S323A, the percent of parent is 87 % of wt.

For the variant chain 2 T142A T226A S309A S323A S330A, the percent of parent is 110 % of wt.

Turning to chain 2 T226A, the percent of parent is 83 % of wt.

Regarding chain 2 S148A, the percent of parent is 85 % of wt.

In the case of chain 2 Y68F, the percent of parent was 93 % of wt.

Take chain 2 S146A: the percent of parent was 85 % of wt.

For the variant chain 2 S309A S323A S330A, the percent of parent was 120 % of wt.

With chain 2 T142A, the percent of parent was 90 % of wt.

Take chain 2 S309A: the percent of parent was 110 % of wt.

The record behind these values is PMC7188906.
